According to the RNAGym collection of RNA variant scans (doi:10.1093/nar/gkz1192):

B1: CPEB3 Ribozyme (parent)
chain: UAACAGGGGGCCACAGCAGAAGCGUUCACGUCGCAGCCCCUGUCAGAUUCUGGUGAAUCUGCGAAUUCUGCUGUAUAUCUC

Variants of: B1
Experiment: self-cleavage, relative activity (ratio to wild type); higher = more cleavage; in vitro, sequencing
Procedure, shortened: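 CPEB3 self-cleaving ribozyme mutant libraries were made by rounds of error-prone PCR, barcoded, and transcribed in vitro with T7 RNA polymerase for 5 hours at 37°C. Cleavage occurred during transcription and a 15 min DNase I step before EDTA stop. RNAs were reverse transcribed with template switching and Illumina-sequenced, with DNA sequencing mapping barcodes to variants. Relative activity is the variant's cleaved/total read fraction divided by wild type's (minimum 5 reads), averaged across three batches.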

Variant	self-cleavage
U51C U69A	0.7
U51C U69C	0.6
U51C U69G	0.56
U51C U72A	0.75
U51C U72C	1.01
U51C U72G	0.88
U51C U74A	1.3
U51C U74C	1.21
U51C U74G	1.21
U51C U76A	1.21
U51C U76C	1.07
U51C U76G	1.16
U51C U78A	1.02
U51C U78C	0.99
U51C U80A	1.13
U51C U80C	1.15
U51C U80G	1.17
U51G	0.99
U51G A56C	0.55
U51G A56G	0.65
U51G A56U	0.52
U51G A57G	0.74
U51G A64G	0.85
U51G A64U	0.52

Variant	self-cleavage
U51G A65G	0.72
U51G A75G	0.89
U51G A75U	1.22
U51G A77G	1.1
U51G A77U	1.16
U51G C62U	0.24
U51G C68A	0.45
U51G C81A	1.25
U51G G53C	1.19
U51G G61A	0.45
U51G G63A	0.98
U51G G63U	1.1
U51G G70A	0.69
U51G U54A	1.28
U51G U54C	1.06
U51G U54G	0.24
U51G U58C	0.37
U51G U60A	0.78
U51G U60C	0.39
U51G U66C	0.21
U51G U67A	0.43
U51G U67C	0.17
U51G U69C	0.62
U51G U69G	0.49

Variant	self-cleavage
U51G U72A	0.91
U51G U72C	0.95
U51G U72G	0.57
U51G U74A	1.14
U51G U76A	1.19
U51G U76C	1.17
U51G U78C	0.97
U51G U80A	1
U51G U80C	1.11
G52A	1.14
G52A A56G	1.19
G52A A56U	1.14
G52A A57G	0.99
G52A A64G	1.03
G52A A65G	0.53
G52A A75G	0.99
G52A A77U	0.98
G52A G53A	1.13
G52A U54A	1.16
G52A U54C	1.09
G52A U54G	1.16
G52A U58A	0.5
G52A U58C	0.68
G52A U58G	0.34

Variant	self-cleavage
G52A U60A	0.4
G52A U60C	0.78
G52A U60G	0.44
G52A U66A	0.66
G52A U66G	0.76
G52A U67A	0.51
G52A U69A	0.84
G52A U69C	0.62
G52A U69G	0.98
G52A U72A	1.13
G52A U72C	1.21
G52A U72G	0.94
G52A U74C	1.26
G52A U76C	1.06
G52A U76G	1.15
G52A U78A	1.19
G52A U78C	1.13
G52A U80A	1.15
G52A U80C	1.18
G52C	1.05
G52C A56G	1.12
G52C A64G	1.04
G52C A65G	0.49
G52C A65U	0.32

Variant	self-cleavage
G52C A77C	1.11
G52C A77G	1.16
G52C C68U	1.18
G52C G61C	0.34
G52C G70U	0.53
G52C U54A	1.14
G52C U54G	1.12
G52C U67A	0.88
G52C U67C	0.57
G52C U69C	0.86
G52C U72A	1
G52C U72C	1.24
G52C U74A	1.28
G52C U80A	1.22
G52C U80C	1.2
G52U	1.13
G52U A56G	1.14
G52U A64G	1.08
G52U A64U	0.39
G52U A65G	0.51
G52U A65U	0.28
G52U C68U	1.19
G52U G61A	1.02
G52U G61C	0.22

Variant	self-cleavage
G52U G63A	0.99
G52U G63U	1.2
G52U U54A	1.09
G52U U54C	1.14
G52U U58C	0.87
G52U U66A	0.64
G52U U66C	0.54
G52U U67A	0.71
G52U U67C	0.32
G52U U67G	0.33
G52U U69A	0.72
G52U U69C	0.73
G52U U72A	0.73
G52U U72G	0.99
G52U U74A	1.26
G52U U74C	1.28
G52U U76A	1.24
G52U U76C	1.19
G52U U76G	1.19
G52U U78C	1.08
G52U U80C	1.05
G53A	1.13
G53A A56G	1
G53A A56U	0.79

Variant	self-cleavage
G53A A57G	0.97
G53A A64G	0.98
G53A A64U	0.48
G53A A65G	0.52
G53A A65U	0.22
G53A A75C	1.18
G53A A77G	1.18
G53A C59A	0.58
G53A C59U	1.07
G53A C79A	1.22
G53A C79U	1.18
G53A G55A	0.87
G53A G55C	1.01
G53A G61A	0.73
G53A G70A	0.62
G53A G70U	0.44
G53A G73C	1.14
G53A U54C	0.92
G53A U58A	0.48
G53A U58C	0.98
G53A U58G	0.24
G53A U60A	0.68
G53A U60C	0.69
